This assay concerns the target Histone H3 acetylated at K14 (endogenous, HEK293), P68431. Put plainly: anti-FLAG immunoprecipitation and western blot, quantified. To be noted: chain shown with the change; HEK293 cells transiently transfected; three biological replicates; anti-H3K14ac blot; parent: est. 1.0; read off a plot.

B1: 3×FLAG-ZMYND8 full length, wild type, Q9ULU4-13 N228F (protein)
chain: MDISTRSKDPGSAERTAQKRKFPSPPHSSNGHSPQDTSTSPIKKKKKPGLLNSNNKEQSELRHGPFYYMKQPLTTDPVDVVPQDGRNDFYCWVCHREGQVLCCELCPRVYHAKCLRLTSEPEGDWFCPECEKITVAECIETQSKAMTMLTIEQLSYLLKFAIQKMKQPGTDAFQKPVPLEQHPDYAEYIFHPMDLCTLEKNAKKKMYGCTEAFLADAKWILHNCIIYFGGNHKLTQIAKVVIKICEHEMNEIEVCPECYLAACQKRDNWFCEPCSNPHPLVWAKLKGFPFWPAKALRDKDGQVDARFFGQHDRAWVPINNCYLMSKEIPFSVKKTKSIFNSAMQEMEVYVENIRRKFGVFNYSPFRTPYTPNSQYQMLLDPTNPSAGTAKIDKQEKVKLNFDMTASPKILMSKPVLSGGTGRRISLSDMPRSPMSTNSSVHTGSDVEQDAEKKATSSHFSASEESMDFLDKSTASPASTKTGQAGSLSGSPKPFSPQLSAPITTKTDKTSTTGSILNLNLDRSKAEMDLKELSESVQQQSTPVPLISPKRQIRSRFQLNLDKTIESCKAQLGINEISEDVYTAVEHSDSEDSEKSDSSDSEYISDDEQKSKNEPEDTEDKEGCQMDKEPSAVKKKPKPTNPVEIKEELKSTSPASEKADPGAVKDKASPEPEKDFSEKAKPSPHPIKDKLKGKDETDSPTVHLGLDSDSESELVIDLGEDHSGREGRKNKKEPKEPSPKQDVVGKTPPSTTVGSHSPPETPVLTRSSAQTSAAGATATTSTSSTVTVTAPAPAATGSPVKKQRPLLPKETAPAVQRVVWNSSSKFQTSSQKWHMQKMQRQQQQQQQQNQQQQPQSSQGTRYQTRQAVKAVQQKEITQSPSTSTITLVTSTQSSPLVTSSGSMSTLVSSVNADLPIATASADVAADIAKYTSKMMDAIKGTMTEIYNDLSKNTTGSTIAEIRRLRIEIEKLQWLHQQELSEMKHNLELTMAEMRQSLEQERDRLIAEVKKQLELEKQQAVDETKKKQWCANCKKEAIFYCCWNTSYCDYPCQQAHWPEHMKSCTQSATAPQQEADAEVNTETLNKSSQGSSSSTQSAPSETASASKEKETSAEKSKESGSTLDLSGSRETPSSILLGSNQGSDHSRSNKSSWSSSDEKRGSTRSDHNTSTSTKSLLPKESRLDTFWD
On to B1, for which the ratio to parent was determined as 0.19.

The record behind these values is paper PMC5177622, “Multivalent Histone and DNA Engagement by a PHD/BRD/PWWP Triple Reader Cassette Recruits ZMYND8 to K14ac-Rich Chromatin” (Cell Reports, 2016).
